# Data from patent US20230095569A1 (ANTENGENE BIOLOGICS, published 2023).
# Positions count from the first letter of the chain named.
# B1: Ab29 (antibody, V domains shown)
# VH: EVLLQQSGPELVKPGASVKIPCKASGYTLTDHSMDWVKQSHGKSLEWIGNILPNNGGNIYNQKFRGKATLTVDKSSSTAYMELRSLTSEDTAVYNCARGHYGNSFAYWGQGTLVIVS
# VL: DIVMTQSPSSLTVRAGEKVTIYCKSSQSLFNSGNQKNYLTWYQQKPGQPPKLLIYWASTRESGVPHRFTGSGSGTDFTLTISSMQADDLATYYCQNGYFFPYTFGGGTKLEIK
# notes: mouse monoclonal (hybridoma)
# B2: Ab31 (antibody, V domains shown)
# VH: QIQLAQSGPELKKPGETVKISCKASGYSFTNYGMNWVKQAPGKGLKWMGWINTYSGETKYADDFKGRFDFSLETSARTAYLQIKNLKIEDTATYFCARRDAMDYWGQGTSVTVSS
# VL: DIVMTQAAPSVPVTPGESVSISCRSSKSLLNSNGNTYLYWFLQRPGQSPQLLIYRMSNLASGVPDRFSGSGSGTAFTLRISRVEAEDVGVYYCMQHLEFPFTFGSGTKLEIK
# notes: mouse monoclonal (hybridoma)
# B3: Ab21 (antibody, V domains shown)
# VH: EVMLVESGGGLVKPGGSLKLSCAASGFTFSSYTMSWVRQTPEKRLEWVATIIGGYGNTYYVDSVKGRFTISRDSAKNTLYLQMISLRSEDTALYYCTRLGQTQRNAMDYWGQGTSVTVSS
# VL: DILMTQSPSSLSVSAGEKVTMSCKSSQSLLNSGNQKNYLAWYQQKPGQPPKLLIYGASTRESGVPDRFTGSGSGTDFTLTISSVQAEDLAVYYCQNDYYYPFTFGAGTKLEL
# notes: mouse monoclonal (hybridoma)
# B4: Ab26 (antibody, V domains shown)
# VH: EVMLVESGGGLVKPGGSLKLSCTASGFTFRSYTMSWVRQTPEKRLEWVATITGGGGNTYFLDSVKGRFTFSRDNAKNALYLQMNSLRSEDTALYYCARLGQTQRNAMDYWGQGTSVTVSS
# VL: B3 VL with L3V, K36M, V91I, Y98H, Y99T, F102L
# notes: mouse monoclonal (hybridoma)
# B5: Ab23 (antibody, V domains shown)
# VH: B3 VH with A23V, I51L, I52S, G53V, G54V, Y55G, S74K, I84S, T97A
# VL: B3 VL with L3V, Y99S, F102L
# notes: mouse monoclonal (hybridoma)
# B6: Ab22 (antibody, V domains shown)
# VH: B3 VH with V61A
# VL: B3 VL with R67T
# notes: mouse monoclonal (hybridoma)
# B7: Ab20 (antibody, V domains shown)
# VH: B3 VH with A23V, V61S, F68I
# VL: B3 VL with S22N
# notes: mouse monoclonal (hybridoma)
# B8: Ab35 (antibody, V domains shown)
# VH: DVFLQESGPGLVKPSQSLSLTCTVTGYSITSDYAWNWIRQFPGNKLEWVTYIGYSGTTSYNPSLKSRISITRDTSKNQFFLQLNSVSTEDTATYYCVRRGSYYGSYWFFDVWGAGTTVTVSS
# VL: QVVLSQSPAILSASPGEKVTMTCRASSSVSYMHWYQQKPGSSPKPWIYATSNLASGVPPHFSGSGSGTSYSLTISRVEAEDAATYYCQQWTSNPPTFGGGTKLEIK
# notes: mouse monoclonal (hybridoma)
# B9: Ab27 (antibody, V domains shown)
# VH: QVQLQQSGAELVRPGSSVKISCKASGYAFSNYWMNWVKQRPGQGLEWIGQIYPGNGDTNYNGKFKGKATLTADKSSTTAYIQLSSLTSEDSAVYFCTRIYYGNSFAYWGQGTLVTVS
# VL: DIVMTQSPSSLTVTAGERVTMSCKSSQSLLNSGNQKNYLTWYQQKPGQPPKLLIYWASTRESGVPDRFTGSGSGTDFTLTISRVQAQDLAVYYCQNDYYYPLTFGAGTKLELK
# notes: mouse monoclonal (hybridoma)
# B10: Ab28 (antibody, V domains shown)
# VH: QVQLKESGPGLVAPSQSLSITCTVSGFSLTSHGVHWVRQPPGKGLEWLGVIWAGGSINFNSALMSRLSISKDNSKNQVFLKMNSLQSDDTAMYYCARDYYYGIGLDYWGQGTTLTVS
# VL: B9 VL with T12S, T14S, R18K, T40A, W56G, R83S, Q87E, L102F, A106S, L112I
# notes: mouse monoclonal (hybridoma)
# B11: Ab05 (antibody, V domains shown)
# VH: DVKLVESGEDLVKPGGSLKLSCAASGFTFSNYAMSWVRQTPEKRLEWVAYVSSGGDYIYYADTVKGRFIISRDNARNTLYLQMNSLRSEDTAMYYCARVYFGNSLDYWGQGTTLTVSS
# VL: B9 VL with R18K, M21L, S32G, K45R, T80I, R83S, Q87E, L102W, A106G, L112I
# notes: mouse monoclonal (hybridoma)
# B12: Ab33 (antibody, V domains shown)
# VH: DVNLVESGGGLVKPGGSLKLSCAASGFTFSSYTMSWVRQTPEKRLEWVATITYGRIYTYYLDSVKGRFTISRDNAKNTLYLQMSSLRSEDTAMYYCTRMITGNAMDSWGLGTSVTVSS
# VL: B9 VL with R18K, R83G, A86G, Q87E, Y99S, A106G
# notes: mouse monoclonal (hybridoma)
# B13: Ab32 (antibody, V domains shown)
# VH: B10 VH
# VL: B9 VL with T12S, T14S, R18K, T40A, W56G, R83S, Q87E, L102F, A106S, L112I
# notes: mouse monoclonal (hybridoma)
# B14: Ab34 (antibody, V domains shown)
# VH: EVLLQQSGPELVKPGASVKIPCKASGYTFSDYNMDWVKQSHGKSLEWIGHINPNNDNTIYNQKFKGKATLTVDKSSNTAYMDLRSLSSEDTAVYYCARGAYYGNSMDYWGQGTSVTVSS
# VL: DIVMTQSPSSLTVTAGERVTMSCKSSQSLLNGGNQRNYLTWYQQKPGQSPKLLIYWASTWESGVPDRFTGSGSGTDFTLTISSVQAEDLAVYYCQNAYFYPYTFGGGTKLEIK
# notes: mouse monoclonal (hybridoma)
# B15: Ab37 (antibody, V domains shown)
# VH: EVKLEESGGGLVQPGGSMKLSCVASGFTFSNYWMNWVRQYPEQGLEWVAQIRLNSDNYATHYAESVKGRFTISRDDSRSTVYLQMNNLRAEDTGIYYCTGGGEYWGQGTTLTVSS
# VL: DIVMTQSQKFMSTTIGDRVSITCKASQNVDTAVAWYQQKPGQSPKLLIYSASTRYTGVPDRFTGSGSGTDFTLTISNMQSEDLADYFCQQYISYQLTFGAGTKLELK
# notes: mouse monoclonal (hybridoma)
# B16: Ab01 (antibody, V domains shown)
# VH: DVQLQESGPGLVKPSQSLSLTCSVTGYSITSGYYWNWIRQFPGNKLEWMGYITYDGSNNYNPSLKNRISITRDTSKNQFFLKLNSVTTEDAATYFCARDPNYYGTTLPAWFVYWGQGTLVTVSA
# VL: DIVVTQSHKFMSTSVGDRVSITCKASQDVGTAVAWYQQKPGQSPKLLIYWASTRHTGVPDRFTGSGSGTDFTLTISNVQSEDLTDYFCQQYSSYVTFGAGTKLELK
# notes: mouse monoclonal (hybridoma)
# B17: Ab30 (antibody, V domains shown)
# VH: QVQLKESGPGLVAPSQSLSITCTVSGFSLTKFGVNWVRQPPGKGLEWLGAIWGDGSTNYHSALISRLSINKDNSKSQVFLKLSSLQNVDTATYYCAKSGYGNAMDYWGHGTSVTVSS
# VL: DIVMTQSPSSLTVTTGEKVTLNCKSSQSLLNSGNLKNYLTWYQQRPGQPPKLLIYWASTRESGVPYRFTGSGSGTDFTLTISNVQAEDLAIYYCQNDYFFPFTFGSGTKLEIK
# notes: mouse monoclonal (hybridoma)
# B18: Ab04 (antibody, V domains shown)
# VH: EVQLQQSGPELVKPGASVKMSCMASGYTFTDYNIHWVKRSHGSRLEWIGYISPISGGAGYNQKFMDKATLTVDKSSNTAYMELRSLTSEDSAVYYCTRGDYWGQGTTLTVSS
# VL: DIVMTQSPSSLAVTVGEKVTMSCKSSQSLLNSGNQKNYLTWYQQKPGQPPKLLIYWASTRKSGVPDRFTGSGSGTDFTLTISSVQAEDLGIYYCLNDYGFPLTFGAGSKLELK
# notes: mouse monoclonal (hybridoma)
# B19: Ab03 (antibody, V domains shown)
# VH: EVQLQQSGPELVKPGASVKIACKASGYTFTDYNMDWVKQSHGKSLEWIGNINSYYGGTIYNQKFKGKATLTVDKSSSTAYMVLRSLTSEDNAVYYCARPHLGNALDYWGQGTSITVSS
# VL: DIVVTQSPSSLTVTPGEKVTMSCKSSQSLFNSGNQKNYLSWYQQNPGQPPKLLIYWASTRQSGVPDRFTGSGSGTDFTLTISSVQAEDLAGYYCQNDYIFPLTFGAGTKLELK
# notes: mouse monoclonal (hybridoma)
# B20: Ab38 (antibody, V domains shown)
# VH: QIQLVQSGPELKKPGETVKISCKASGYTFTNYGMSWVKQAPGKGLKWMGWINTYSGVPTYADDFKGRFVFSLEASASTAYLQINNLKNEDAATYFCSRWSGPDPLEDHWGQGTTLTVSS
# VL: QIVLTQSPAIMSASPGEKVTMTCTASLSLNYIHWYRQRSGTSPKRWIYDTSKLASGVPSRFSGSGSGTSYSLTISSMEAEDAATYYCQQWSSNPWTFGGGTKLEIK
# notes: mouse monoclonal (hybridoma)
# B21: Ab36 (antibody, V domains shown)
# VH: B15 VH with Y40S, Q43K, N54K, R69M, R78K, T80S, G100A, E103D
# VL: DIVMTQSQKFMSTTVGDRVSITCKASQNVGTAVAWYHQKPGQSPKLLIYSASNRYTGVPDRFIGSGSGTDFTLTISNVQSEDLGNYFCQQYINYLLTFGSGTKLEIK
# notes: mouse monoclonal (hybridoma)
# Target: T1, human Claudin18.1 (CLDN18.1) (human, UniProt P56856 1-261)
# T1 construct: whole, on cells; also called human Claudine18.1
# Assay: FACS on CHOK1-18.1 cells;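 on FACS MFI: test antibody binding to the cells detected by flow cytometry using a fluorescent dye-labelled secondary antibody, read out as median fluorescence intensity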;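 on result: antibody binding to cells detected with a fluorescently labelled secondary antibody, read out as median fluorescence intensity (MFI) by flow cytometry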
# Experimental: (§1) The specificity and cross-reactivity of these subclones were confirmed with FACs analysis. […] Fluorescent dye-conjugated secondary antibody was used to detect the binding of the primary antibody with the cells. Median fluorescence intensity (MFI) was measured by FACs analysis.
row,FACS MFI,Binder
1,97,B1
2,97,B2
3,79.4,B3
4,80.8,B4
5,82.3,B5
6,82.3,B6
7,82.3,B7
8,92.6,B8
9,97,B9
10,206,B10
11,97,B11
12,97,B12
13,172,B13
14,91.1,B14
15,4590,B15
16,7250,B16
17,98.5,B17
18,6920,B18
19,95.6,B19

# Target: T1, human Claudin18.1 (CLDN18.1)
# Assay: FACS on CHOK1-18.1 cells;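 on FACS MFI: test antibody binding to the cells detected by flow cytometry using a fluorescent dye-labelled secondary antibody, read out as median fluorescence intensity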;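 on result: antibody binding to cells detected with a fluorescently labelled secondary antibody, read out as median fluorescence intensity (MFI) by flow cytometry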
# Remark: another data set of the same source
# Experimental: as §1
row,binding result,Binder
1,no binding,B1
2,no binding,B2
3,no binding,B3
4,no binding,B4
5,no binding,B5
6,no binding,B6
7,no binding,B7
8,no binding,B8
9,no binding,B9
10,no binding,B10
11,no binding,B11
12,no binding,B12
13,no binding,B13
14,no binding,B14
15,no binding,B17
16,no binding,B19

# Target: T2, human Claudin18.2 (CLDN18.2) (human, UniProt P56856 1-261)
# T2 construct: the cell line is named under assay; also called human Claudine18.2; hClaudin18.2
# Assay: FACS on CHOK1-18.2 cells;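 further: antibody binding to the cells detected with a fluorescently labelled secondary antibody and read out as median fluorescence intensity by flow cytometry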
# Experimental: as §1
row,FACS MFI,Binder
1,19100,B1
2,5520,B2
3,10100,B3
4,9730,B4
5,8600,B5
6,9020,B6
7,7580,B7
8,15700,B20
9,11300,B8
10,7150,B9
11,8880,B10
12,16000,B11
13,8200,B12
14,8730,B13
15,9070,B14
16,18000,B21
17,15200,B15
18,12300,B16
19,7560,B17
20,17600,B18
21,1960,B19
